The test system of one experiment is Jurkat cells. Type of experiment: cell-based. On the procedure:
The apoptotic activity of test peptides is measured using a Jurkat proliferation assay.
Jurkat cells are obtained from the American Type Culture Collection (ATCC, Manassas, Va.) and are maintained in RPMI-1640 medium supplemented with 10% FBS, 100 U/mL penicillin, and 100 […] (Growth Medium). […] Cells are resuspended at a density of 1×10^6 cells/mL in Growth Medium, and 50 μl cells is added to each well of the assay plates. The plates are incubated in a 37° C., 5% CO2 incubator for 24-48 hours. Proliferation is assessed by adding 10 μL of MTT stock solution (ATCC, Manassas, Va.) to the wells. The plates are incubated in a 37° C., 5% CO2 incubator for another 2-4 hours, followed by the addition of 100 μL of 20% SDS with 0.01 N HCl. After incubation overnight in a 37° C., 5% CO2 incubator, the plates are quantified by reading the optical density at a wavelength of 595 nm (OD595) in a SpectraMax® M5 microplate reader (Molecular Devices, Sunnyvale, Calif.). The data are analyzed using GraphPad Prism® software (La Jolla, Calif.) to calculate IC50 values from a 4-parameter logistic equation.

Another experiment has as its system HCT-116 cells. Type of experiment: cell-based. On the procedure: The apoptotic activity of test peptides is measured using an HCT-116 proliferation assay. The HCT-116 assay is used to measure the activity of TRAIL R2 agonist peptides using the colon carcinoma cell line HCT-116 (ATCC, Manassas, Va.).
In more detail, a peptide homotrimer based on the peptide monomer sequence of SEQ ID NO: 19 (See, FIG. 8B) is tested for functional activity using the HCT-116 proliferation assay. HCT-116 cells are incubated for one to two days in the presence of serially diluted peptide dimers or peptide trimers. […]
Cell viability is measured using an MTT colorimetric viability assay, a colorimetric assay that analyzes the number of viable cells by measuring the ability of mitochondrial dehydrogenase enzyme in the viable cells to cleave tetrazolium salts added to the culture medium [See, Mosmann (1983) J. Immunol. […] Using this assay, cell proliferation is assessed after 24-48 hours by adding 10 μL of MTT stock solution (ATCC, Manassas, Va.) to the wells. […] After incubation overnight in a 37° C., 5% CO2 incubator, the plates are quantified by reading the optical density at 595 nm (OD595) in a SpectraMax M5 microplate reader (Molecular Devices, Sunnyvale, Calif.). The data are analyzed using GraphPad® Prism software (La Jolla, Calif.) to calculate IC50 values from a 4-parameter logistic equation.

In experiment [1] the target is TRAIL R2 receptor on HCT-116 or Jurkat cells (UniProt O14763 56-440, limits assumed). Nature of the experiment: cell-based or functional assay.
Experiment [2] has as its target T1, Recombinant human TRAIL R2-Fc fusion protein (R&D Systems) (human, UniProt O14763 52-182, limits assumed).
T1 construct: Bought from R&D Systems; held on protein A-coated acceptor beads in the AlphaQuest/AlphaScreen assay; also called TRAIL R2 receptor; R2 receptor; not shown: Fc part of the bought fusion protein
As to the kind of experiment: AlphaQuest competition: displaces biotinylated TRAIL ligand from human TRAIL R2-Fc. On the procedure: The plates are sealed with adhesive sealing film and covered with aluminum foil, centrifuged at 600 rpm for 30 seconds and incubated overnight in the dark. […] The raw data are analyzed using GraphPad Prism® software (La Jolla, Calif.) to calculate IC₅₀ values from a 4-parameter logistic equation.
The binding affinity of the antagonist peptides and peptide-based compounds of the invention are measured according to the AlphaQuest® Competitive Binding Assay, described above, in Example 1.1. The IC₅₀ values are determined for each test peptide or test compound. The compounds tested are homodimers and homotrimers of peptides comprising the amino sequence set forth in SEQ ID NOs: 33 and 34, linked by DIG or TSAT, respectively.

Numbered stars: 1 amine (or outer) side, 2 acyl side, 3 side chain; on linkers, the order of the positions; unused ones are H or OH. Bridge positions count the residues as written; N and C are the ends. Peptide text beside a SMILES is read from it. I, II: the chains in the order shown. TSAT = Tris-succinimidyl aminotriacetate linker; Isophthaloyl = O=C(c1cccc(C(=O)[*:2])c1)[*:1]; X1 = O=C(CN(CC(=O)[*:2])CC(=O)[*:3])[*:1]; Diglycolyl = O=C(COCC(=O)[*:2])[*:1]; DIG = diglycolic acid linker A value given as a limit tells only on which side of the number the result lay.

Take `CC[C@H](C)[C@@H]1NC(=O)[C@H](CCCNC(=N)N)NC(=O)[C@H](CC(N)=O)NC(=O)[C@H](CC(=O)O)NC(=O)[C@H](CC(C)C)NC(=O)[C@@H](NC(=O)[C@H](CC(=O)O)NC(=O)[C@H](Cc2c[nH]c3ccccc23)NC(C)=O)CSSC[C@@H](C(=O)N[C@H](C(=O)N[C@@H](CCCCNC(=O)c2cccc(C(=O)NCCCC[C@H](NC(=O)[C@@H](NC(=O)[C@@H]3CSSC[C@H](NC(=O)[C@H](CC(=O)O)NC(=O)[C@H](Cc4c[nH]c5ccccc45)NC(C)=O)C(=O)N[C@@H](CC(C)C)C(=O)N[C@@H](CC(=O)O)C(=O)N[C@@H](CC(N)=O)C(=O)N[C@@H](CCCNC(=N)N)C(=O)N[C@@H]([C@@H](C)CC)C(=O)NCC(=O)N[C@@H](CCCNC(=N)N)C(=O)N[C@@H](CCCNC(=N)N)C(=O)N[C@@H](CCC(N)=O)C(=O)N3)C(C)C)C(=O)N[C@@H](CC(C)C)C(N)=O)c2)C(=O)N[C@@H](CC(C)C)C(N)=O)C(C)C)NC(=O)[C@H](CCC(N)=O)NC(=O)[C@H](CCCNC(=N)N)NC(=O)[C@H](CCCNC(=N)N)NC(=O)CNC1=O` [SEQ ID NO: 19 homodimer (IPA linker)] (I: Ac-WDCLDNRIGRRQCVKL-NH2 / II: Ac-WDCLDNRIGRRQCVKL-NH2; disulfide I:3-I:13, II:3-II:13; linker I:15-II:15 via Isophthaloyl): the EC50 with Jurkat cells lay within 1400 to 4020 nM.
Same read-out and setting: with `CC(=O)N[C@@H](Cc1c[nH]c2ccccc12)C(=O)N[C@@H](CC(=O)O)C(=O)N[C@H]1CSSC[C@@H](C(=O)N[C@H](C(=O)N[C@@H](CCCCNC(=O)COCC(=O)NCCCC[C@H](NC(=O)[C@@H](NC(=O)[C@@H]2CSSC[C@H](NC(=O)[C@H](CC(=O)O)NC(=O)[C@H](Cc3c[nH]c4ccccc34)NC(C)=O)C(=O)N[C@@H](CC(C)C)C(=O)N[C@@H](C(C)C)C(=O)N[C@@H](CC(=O)O)C(=O)N[C@@H](CCCNC(=N)N)C(=O)N3CCC[C@H]3C(=O)NCC(=O)N[C@@H](CCCNC(=N)N)C(=O)N[C@@H](CCCNC(=N)N)C(=O)N[C@@H](CCC(N)=O)C(=O)N2)C(C)C)C(=O)N[C@@H](CC(C)C)C(=O)N[C@@H](CCC(=O)O)C(=O)N[C@@H](CCCNC(=N)N)C(N)=O)C(=O)N[C@@H](CC(C)C)C(=O)N[C@@H](CCC(=O)O)C(=O)N[C@@H](CCCNC(=N)N)C(N)=O)C(C)C)NC(=O)[C@H](CCC(N)=O)NC(=O)[C@H](CCCNC(=N)N)NC(=O)[C@H](CCCNC(=N)N)NC(=O)CNC(=O)[C@@H]2CCCN2C(=O)[C@H](CCCNC(=N)N)NC(=O)[C@H](CC(=O)O)NC(=O)[C@H](C(C)C)NC(=O)[C@H](CC(C)C)NC1=O` [SEQ ID NO: 31 homodimer] (I: Ac-WDCLVDRPGRRQCVKLER-NH2 / II: Ac-WDCLVDRPGRRQCVKLER-NH2; disulfide I:3-I:13, II:3-II:13 (inferred); linker I:15-II:15 via Diglycolyl (inferred)) the figure was above 22000 nM.
Consider “I: Ac-WDCLDNRIGRRQCVKL-NH2 / II: Ac-WDCLDNRIGRRQCVKL-NH2 / III: Ac-WDCLDNRIGRRQCVKL-NH2 (disulfide I:3-I:13, II:3-II:13, III:3-III:13 (inferred); linker I:15-II:15-III:15 via X1 (inferred)) [SEQ ID NO: 19 homotrimer]”, for which the half-maximal effective concentration (EC50) in the experiment with HCT-116 cells is around 480 nM.
Regarding `CC(=O)N[C@@H](Cc1c[nH]c2ccccc12)C(=O)N[C@@H](CC(=O)O)C(=O)N[C@H]1CSSC[C@@H](C(=O)N[C@H](C(=O)N[C@@H](CCCNC(=N)N)C(=O)N[C@@H](CC(C)C)C(=O)N[C@@H](CCC(=O)O)C(=O)N[C@@H](CCCCNC(=O)COCC(=O)NCCCC[C@H](NC(=O)[C@H](CCC(=O)O)NC(=O)[C@H](CC(C)C)NC(=O)[C@H](CCCNC(=N)N)NC(=O)[C@@H](NC(=O)[C@@H]2CSSC[C@H](NC(=O)[C@H](CC(=O)O)NC(=O)[C@H](Cc3c[nH]c4ccccc34)NC(C)=O)C(=O)N[C@@H](CC(C)C)C(=O)N[C@@H](C(C)C)C(=O)N[C@@H](CC(=O)O)C(=O)N[C@@H](CCCNC(=N)N)C(=O)N3CCC[C@H]3C(=O)NCC(=O)N[C@@H](CCCNC(=N)N)C(=O)N[C@@H](CCCNC(=N)N)C(=O)N[C@@H](CCC(N)=O)C(=O)N2)C(C)C)C(N)=O)C(N)=O)C(C)C)NC(=O)[C@H](CCC(N)=O)NC(=O)[C@H](CCCNC(=N)N)NC(=O)[C@H](CCCNC(=N)N)NC(=O)CNC(=O)[C@@H]2CCCN2C(=O)[C@H](CCCNC(=N)N)NC(=O)[C@H](CC(=O)O)NC(=O)[C@H](C(C)C)NC(=O)[C@H](CC(C)C)NC1=O` [SEQ ID NO: 29 homodimer] (I: Ac-WDCLVDRPGRRQCVRLEK-NH2 / II: Ac-WDCLVDRPGRRQCVRLEK-NH2; disulfide I:3-I:13, II:3-II:13 (inferred); linker I:18-II:18 via Diglycolyl (inferred)), in the experiment with Jurkat cells, the concentration for a half-maximal effect (EC50) lay in the range of 1300 to 1660 nM.

B1: peptide homodimer based on the monomer amino acid sequence of SEQ ID NO: 34, DIG linker (peptide)
peptide: Ac-WDCLDNRIGK(DIG)RQCVRA-NH2
modifications: disulfide 3-13 (inferred); also: homodimer joined by DIG linker at Lys10
notes: also called 34 Dimer DIG
Turning to B1, in experiment [1], the “EC50, Jurkat antagonist assay (inhibition of TRAIL ligand-induced apoptosis)” value was found to be 1580 nM. Besides, the IC50 in experiment [2] came out at 0.06 nM.

B2: peptide homotrimer based on the monomer amino acid sequence of SEQ ID NO: 34, TSAT linker (peptide)
peptide: Ac-WDCLDNRIGK(TSAT)RQCVRA-NH2
modifications: disulfide 3-13 (inferred); also: homotrimer joined by TSAT linker at Lys10
Take B2: the “EC50, Jurkat antagonist assay (inhibition of TRAIL ligand-induced apoptosis)” value in experiment [1] is 323 nM. Also, in experiment [2], the IC50 amounted to 0.038 nM.

B3: peptide homodimer based on the monomer amino acid sequence of SEQ ID NO: 33, DIG linker (peptide)
peptide: Ac-WDCLDNRIGK(DIG)RQCVR-NH2
modifications: disulfide 3-13 (inferred); also: homodimer joined by DIG linker at Lys10
notes: also called 33 Dimer DIG
Consider B3, for which the “EC50, Jurkat antagonist assay (inhibition of TRAIL ligand-induced apoptosis)” value in experiment [1] worked out at 5440 nM. Also, the IC50 in experiment [2] came out at 0.111 nM.

The EC50 is the midpoint of the concentration-response curve. Low readings indicate higher potency in that assay, high ones lower potency in that assay. In general, IC50 refers to the concentration that inhibits the measured activity by half.

The values above are taken from patent US20090131317A1, “COMPOUNDS AND PEPTIDES THAT BIND THE TRAIL RECEPTOR” (AFFYMAX, INC., priority 2007, published 2009).
